Numbering of substitutions follows the chain as printed.
Experiments:
[1] = molecular target: T1, recombinant human interferon beta-1a (human, UniProt P01574 22-187); assay: SPR; IFN-β immobilised on ProteOn GLH chip by amine coupling; Ca^2+-loaded S100 as analyte (0.25–5 µM S100A1, 0.5–5 µM S100A4/A6, 5 µM other S100); 25 °C; 10 mM HEPES, 150 mM NaCl, 0.01% TWEEN 20, pH 7.4, 1 mM CaCl2; heterogeneous ligand model; details: both partners purified
T1 construct: human interferon beta (interferon beta-1a), UniProt P01574; Pharmaceutical interferon beta-1a; also called IFN-β; Interferon-β; source: bought: Merck (Rebif), produced in CHO-K1 cells

[2] = molecular target: the molecule itself; assay: SPR; estimate from the SPR data for 0.5 µM S100 analyte on immobilised IFN-β, 1 mM CaCl2; dimer to monomers, Ca^2+-loaded S100

B1: recombinant human S100A11 (natural protein, UniProt P31949 1-105, looked up)
chain: MAKISSPTETERCIESLIAVFQKYAGKDGYNYTLSKTEFLSFMNTELAAFTKNQKDPGVLDRMMKKLDTNSDGQLDFSEFLNLIGGLAMACHDSFLKAVPSQKRT
notes: human S100A11, Swiss-Prot P31949, gene cloned into pHUE between SacII and HindIII; Made as a ubiquitin-S100 chimera and cut with Usp2; also called S10AB; source: E. coli BL21 (DE3) with pLacIRARE, purified (IMAC, Usp2 cleavage, anion exchange, gel filtration)
[1]
  Kd: ≥ 10 µM

B2: recombinant human S100A1 (natural protein)
chain: GSELETAMETLINVFHAHSGKEGDKYKLSKKELKELLQTELSGFLDAQKDVDAVDKVMKELDENGDGEVDFQEYVVLVAALTVACNNFFWENS
notes: human S100A1, Swiss-Prot P23297, gene cloned into pHUE between SacII and HindIII; Made as a ubiquitin-S100 chimera and cut with Usp2; also called S10A1; source: E. coli BL21 (DE3) with pLacIRARE, purified (IMAC, Usp2 cleavage, anion exchange, gel filtration)
[2]
  Kd: ≤ 0.5 µM

B3: recombinant human S100A12 (natural protein, UniProt P80511 1-92, looked up)
chain: MTKLEEHLEGIVNIFHQYSVRKGHFDTLSKGELKQLLTKELANTIKNIKDKAVIDEIFQGLDANQDEQVDFQEFISLVAIALKAAHYHTHKE
notes: human S100A12, Swiss-Prot P80511, gene cloned into pHUE between SacII and HindIII; Made as a ubiquitin-S100 chimera and cut with Usp2; also called S10AC; source: E. coli BL21 (DE3) with pLacIRARE, purified (IMAC, Usp2 cleavage, anion exchange, gel filtration)
[1]
  Kd: ≥ 10 µM

B4: recombinant human S100A4 (natural protein)
chain: not shown
notes: human S100A4, Swiss-Prot P26447, gene cloned into pHUE between SacII and HindIII; Made as a ubiquitin-S100 chimera and cut with Usp2; also called S10A4; source: E. coli BL21 (DE3) with pLacIRARE, purified (IMAC, Usp2 cleavage, anion exchange, gel filtration)
[2]
  Kd: ≤ 0.5 µM

B5: recombinant human S100A9 (natural protein, UniProt P06702 1-114, looked up)
chain: MTCKMSQLERNIETIINTFHQYSVKLGHPDTLNQGEFKELVRKDLQNFLKKENKNEKVIEHIMEDLDTNADKQLSFEEFIMLMARLTWASHEKMHEGDEGPGHHHKPGLGEGTP
notes: human S100A9, Swiss-Prot P06702, gene cloned into pET-11a between NdeI and BamHI; also called S10A9; source: E. coli BL21(DE3)pLysS, purified (ammonium sulfate, anion exchange, cation exchange, gel filtration)
[1]
  Kd: ≥ 10 µM

B6: recombinant human S100A8 (natural protein, UniProt P05109 1-93, looked up)
chain: MLTELEKALNSIIDVYHKYSLIKGNFHAVYRDDLKKLLETECPQYIRKKGADVWFKELDINTDGAVNFQEFLILVIKMGVAAHKKSHEESHKE
notes: human S100A8, Swiss-Prot P05109, gene cloned into pHUE between SacII and HindIII; Made as a ubiquitin-S100 chimera and cut with Usp2; also called S10A8; source: E. coli BL21(DE3)-RIL, purified (IMAC, Usp2 cleavage, anion exchange, gel filtration)
[1]
  Kd: ≥ 10 µM

B7: recombinant human S100A13 (natural protein, UniProt Q99584 1-98, looked up)
chain: MAAEPLTELEESIETVVTTFFTFARQEGRKDSLSVNEFKELVTQQLPHLLKDVGSLDEKMKSLDVNQDSELKFNEYWRLIGELAKEIRKKKDLKIRKK
notes: human S100A13, Swiss-Prot Q99584, gene cloned into pET-11a between NdeI and BamHI; also called S10AD
[1]
  Kd: ≥ 10 µM

B8: recombinant human S100A14 (natural protein, UniProt Q9HCY8 1-104, looked up)
chain: MGQCRSANAEDAQEFSDVERAIETLIKNFHQYSVEGGKETLTPSELRDLVTQQLPHLMPSNCGLEEKIANLGSCNDSKLEFRSFWELIGEAAKSVKLERPVRGH
notes: human S100A14, Swiss-Prot Q9HCY8, gene cloned into pHUE between SacII and HindIII; Made as a ubiquitin-S100 chimera and cut with Usp2; also called S10AE; source: E. coli BL21(DE3)-RIL, purified (IMAC, Usp2 cleavage, second IMAC, gel filtration)
[1]
  Kd: ≥ 10 µM

B9: recombinant human S100A7 (natural protein, UniProt P31151 1-101, looked up)
chain: MSNTQAERSIIGMIDMFHKYTRRDDKIEKPSLLTMMKENFPNFLSACDKKGTNYLADVFEKKDKNEDKKIDFSEFLSLLGDIATDYHKQSHGAAPCSGGSQ
notes: human S100A7, Swiss-Prot P31151, gene cloned into pHUE between SacII and HindIII; Made as a ubiquitin-S100 chimera and cut with Usp2; also called S10A7; source: E. coli BL21(DE3)-RIL, purified (IMAC, Usp2 cleavage, anion exchange, gel filtration)
[1]
  Kd: ≥ 10 µM

B10: recombinant human S100A15 (S100A7A) (natural protein, UniProt Q86SG5 1-101, looked up)
chain: B9 chain with R22G, D25G, T52I, N53H, D57T, T84A
notes: human S100A15 (S100A7A), Swiss-Prot Q86SG5, gene cloned into pHUE between SacII and HindIII; Made as a ubiquitin-S100 chimera and cut with Usp2; also called A1A7A; source: E. coli BL21(DE3)-RIL, purified (IMAC, Usp2 cleavage, anion exchange, gel filtration)
[1]
  Kd: ≥ 10 µM
